Measurements from PMC4258425.

Key:
Details in all cases: 100 mM Na2HPO4 pH 8.0, 22 °C
[1] = substrate: CC#CC(=O)C(=O)O; assay: hydratase kinetics; assay type: biochemical, Bacillus subtilis
[2] = substrate: O=CCC(=O)O; assay: decarboxylase kinetics; assay type: biochemical, Bacillus subtilis
[3] = substrate: CC#CC(=O)C(=O)O; assay: hydratase kinetics; assay type: biochemical, Paraburkholderia phymatum

Protein | Km [1] [mM] | kcat [1] [s⁻¹] | kcat/Km [1] [M⁻¹ s⁻¹] | Km [2] [mM] | kcat [2] [s⁻¹] | kcat/Km [2] [M⁻¹ s⁻¹] | Km [3] [mM] | kcat [3] [s⁻¹] | kcat/Km [3] [M⁻¹ s⁻¹]
YodA (Bacillus subtilis subsp. subtilis str. 168) (protein) PLLRFDVIEGRDEKSLQLLLDTAHQAMVEAFGVPERDRYQIVHQHPANELIIQDAGLGFQRTKDMVIISMTSKARTESQKEKLYALLAERLEKKCEISPDDLMVSITENGDADWSFGLGEAQFLNGKL | 0.27 ± 0.04 | 0.03 ± 0.001 | 111 | 6.8 ± 0.94 | 12.2 ± 1.1 | 1300 |  |  | 
Bp4401 (Paraburkholderia phymatum STM815) (protein) PLTRIALRAGKPAAYRQALTEGIQRALIAEFNVPEDDIFMVISEQDESNFVYNRNYLDIQRSDDFVLIQLTVTNSRTQEQKKALYKRIVDNLAEYPGVRREDVFINLVEVLKENWSFGNGIAQYAL |  |  |  |  |  |  | 5 ± 0.35 | 14 ± 0.1 | 2800
